{
  "source": "IntAct's records for PubMed 26559832",
  "parents": {"B1": {"name": "Ribonucleoside-diphosphate reductase large subunit (Human herpesvirus 2 (strain HG52) (HHV-2)), P89462 (parent)", "chain": "MANRPAASALAGARSPSERQEPREPEVAPPGGDHVFCRKVSGVMVLSSDPPGPAAYRISDSSFVQCGSNCSMIIDGDVARGHLRDLEGATSTGAFVAISNVAAGGDGRTAVVALGGTSGPSATTSVGTQTSGEFLHGNPRTPEPQGPQAVPPPPPPPFPWGHECCARRDARGGAEKDVGAAESWSDGPSSDSETEDSDSSDEDTGSETLSRSSSIWAAGATDDDDSDSDSRSDDSVQPDVVVRRRWSDGPAPVAFPKPRRPGDSPGNPGLGAGTGPGSATDPRASADSDSAAHAAAPQADVAPVLDSQPTVGTDPGYPVPLELTPENAEAVARFLGDAVDREPALMLEYFCRCAREESKRVPPRTFGSAPRLTEDDFGLLNYALAEMRRLCLDLPPVPPNAYTPYHLREYATRLVNGFKPLVRRSARLYRILGVLVHLRIRTREASFEEWMRSKEVDLDFGLTERLREHEAQLMILAQALNPYDCLIHSTPNTLVERGLQSALKYEEFYLKRFGGHYMESVFQMYTRIAGFLACRATRGMRHIALGRQGSWWEMFKFFFHRLYDHQIVPSTPAMLNLGTRNYYTSSCYLVNPQATTNQATLRAITGNVSAILARNGGIGLCMQAFNDASPGTASIMPALKVLDSLVAAHNKQSTRPTGACVYLEPWHSDVRAVLRMKGVLAGEEAQRCDNIFSALWMPDLFFKRLIRHLDGEKNVTWSLFDRDTSMSLADFHGEEFEKLYEHLEAMGFGETIPIQDLAYAIVRSAATTGSPFIMFKDAVNRHYIYDTQGAAIAGSNLCTEIVHPASKRSSGVCNLGSVNLARCVSRQTFDFGRLRDAVQACVLMVNIMIDSTLQPTPQCTRGNDNLRSMGIGMQGLHTACLKMGLDLESAEFRDLNTHIAEVMLLAAMKTSNALCVRGARPFSHFKRSMYRAGRFHWERFSNASPRYEGEWEMLRQSMMKHGLRNSQFIALMPTAASAQISDVSEGFAPLFTNLFSKVTRDGETLRPNTLLLKELERTFGGKRLLDAMDGLEAKQWSVAQALPCLDPAHPLRRFKTAFDYDQELLIDLCADRAPYVDHSQSMTLYVTEKADGTLPASTLVRLLVHAYKRGLKTGMYYCKVRKATNSGVFAGDDNIVCTSCAL"}},
  "data": [
    {"variants_of": "B1", "conditions": "with ripk3_human RIPK3, Q9Y572", "values": [
      {"variant": "V64A;Q65A;C66A;G67A", "effect of a mutation on the interaction": "decreasing interaction strength"}
    ]}
  ]
}
